# In patent US20260242483A1 (IMCHECK THERAPEUTICS, published 2026):
# Where a chain is given by its changes, count along the chain named. In names and notes the source's numbering stands.
# B1: Chimeric 7.2 (VH0/Vκ0) (antibody, V domains shown)
# VH: QVQLQQSGAELVKPGASVKLSCKASGYIFTRYYMYWVKQRPGQGLEWIGEINPNNGGTKFNEKFKNKATLTVDKFSSTAYMQLRSLTSEDSAVYYCSREDDYDGTPFAMDYWGQGTSVTVSS
# VL: DIQMNQSPSSLSASLGDTITITCHASQNINVWLSWYQQKPGNIPKLLIYKASNLHTGVPSRFTGSGSGTGFTLTISSLQPEDIATYYCQQGQTYPYTFGGGTKLEIK
# notes: not used; also called 7.2 VH0/Vk0; chimeric 7.2 antibody
# B2: mAb1 (antibody, human IgG1, kappa)
# heavy: QVQLVQSGAEVKKPGASVKLSCKASGYIFTRYYMYWVKQRPGQGLEWIGEINPNNGGTKFNEKFKNRATLTVDKSISTAYMELSRLRSDDTAVYYCSREDDYDGTPFAMDYWGQGTLVTVSSASTKGPSVFPLAPSSKSTSGGTAALGCLVKDYFPEPVTVSWNSGALTSGVHTFPAVLQSSGLYSLSSVVTVPSSSLGTQTYICNVNHKPSNTKVDKRVEPKSCDKTHTCPPCPAPEFEGGPSVFLFPPKPKDTLMISRTPEVTCVVVDVSHEDPEVKFNWYVDGVEVHNAKTKPREEQYNSTYRVVSVLTVLHQDWLNGKEYKCKVSNKALPASIEKTISKAKGQPREPQVYTLPPSREEMTKNQVSLTCLVKGFYPSDIAVEWESNGQPENNYKTTPPVLDSDGSFFLYSKLTVDKSRWQQGNVFSCSVMHEALHNHYTQKSLSLSPG
# light: not shown
# notes: Humanized 7.2 (VH2/Vk1), silent IgG1 L247F/L248E/P350S, kappa; also called 7.2 VH2/VK1 IgG1; IgG1 7.2 VH2/VK1
# B3: mAb2 (antibody, human IgG1, kappa)
# heavy: B2 heavy
# light: not shown
# notes: Humanized 7.2 (VH2/Vk2), silent IgG1 L247F/L248E/P350S, kappa; also called 7.2 VH2/VK2 IgG1; IgG1 7.2 VH2/VK2
# B4: 7.2 VH2/VK1 F(ab′)2 (other)
# heavy: QVQLVQSGAEVKKPGASVKLSCKASGYIFTRYYMYWVKQRPGQGLEWIGEINPNNGGTKFNEKFKNRATLTVDKSISTAYMELSRLRSDDTAVYYCSREDDYDGTPFAMDYWGQGTLVTVSS
# light: not shown
# notes: not shown: IgG4 CH1 and hinge up to the pepsin cleavage site
# B5: 7.2 VH2/VK2 F(ab′)2 (other)
# heavy: B4 heavy
# light: not shown
# notes: as for B4
# B6: mAb3 (antibody, V domains shown)
# VH: QVQLVQSGAEVKKPGASVKVSCKASGYTFNGYYIHWVRQAPGQGLEWMGWINSNSGGTKYAQKFQGRVTMTRDTSISTAYMELSRLRSDDTAVYYCARRHSDMIGYYYGMDVWGQGTTVTVSS
# VL: DIQMTQSPSSVSASVGDRVTITCRASQGISSWLAWYQQKPGKAPKLLIYAASSLQSGVPSRFSGSGSGTDFTLTISSLQPEDFATYYCQQATDFPPTFGGGTKVEIKR
# B7: mAb6 (antibody, V domains shown)
# VH: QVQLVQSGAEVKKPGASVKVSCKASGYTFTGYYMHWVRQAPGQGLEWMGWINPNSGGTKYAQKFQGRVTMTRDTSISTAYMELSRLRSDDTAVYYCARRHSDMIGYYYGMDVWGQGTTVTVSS
# VL: B6 VL with V11L, G28S, S31L, W32F, A34N, A50T, T92N, D93S, E105D
# Columns and labels:
# [1] = target: T1, recombinant human BTN3A1-His (Sino Biological Cat. No. 15973-H08H) (human, UniProt O00481 30-254); assay: SPR Biacore multi-cycle kinetics; antibody captured on Protein A, BTN3A1-His analyte, 1:1 fit
# T1 construct: Bought protein; also called BTN3A1 His-tagged antigen; CD277; not shown: C-terminal His tag
# T1 sequence (O00481 30-254 limits assumed): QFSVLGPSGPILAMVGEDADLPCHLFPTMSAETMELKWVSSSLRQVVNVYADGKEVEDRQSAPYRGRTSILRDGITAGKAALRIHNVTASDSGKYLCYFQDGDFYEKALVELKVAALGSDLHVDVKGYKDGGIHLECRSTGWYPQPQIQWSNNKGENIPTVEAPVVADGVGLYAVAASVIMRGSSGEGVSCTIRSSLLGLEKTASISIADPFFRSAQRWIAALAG
# [2] = target: T2, BTN3A3-CFP on HEK293T BTN3KO cells (human, UniProt O00478 30-584); assay: flow cytometry on HEK293T BTN3KO transiently transfected with BTN3A3-CFP, gated CFP+ (n = 5)
# T2 construct: Transient transfection of BTN3A knock-out HEK293T; also called HEK293T BTN3KO + 3A3-CFP; not shown: CFP fusion partner
# T2 sequence (O00478 30-584): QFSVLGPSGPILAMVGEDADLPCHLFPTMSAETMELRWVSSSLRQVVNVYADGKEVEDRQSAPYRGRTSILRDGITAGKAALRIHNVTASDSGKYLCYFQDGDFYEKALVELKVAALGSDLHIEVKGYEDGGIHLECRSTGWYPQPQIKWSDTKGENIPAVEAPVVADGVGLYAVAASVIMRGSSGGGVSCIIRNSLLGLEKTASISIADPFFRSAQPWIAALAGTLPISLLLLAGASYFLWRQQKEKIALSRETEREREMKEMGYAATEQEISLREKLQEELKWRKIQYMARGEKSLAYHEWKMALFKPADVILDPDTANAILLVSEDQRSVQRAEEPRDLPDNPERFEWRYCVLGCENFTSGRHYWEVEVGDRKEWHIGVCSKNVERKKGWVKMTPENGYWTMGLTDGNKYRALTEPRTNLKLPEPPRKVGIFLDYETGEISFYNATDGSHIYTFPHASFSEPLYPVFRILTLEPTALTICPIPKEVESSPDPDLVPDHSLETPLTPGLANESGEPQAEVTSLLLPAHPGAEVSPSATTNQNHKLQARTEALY
# [3] = target: T3, BTN3A1-CFP on HEK293T BTN3KO cells (human, UniProt O00481 30-513); assay: flow cytometry on HEK293T BTN3KO transiently transfected with BTN3A1-CFP, gated CFP+ (n = 4)
# T3 construct: Transient transfection of BTN3A knock-out HEK293T; also called HEK293T BTN3KO + 3A1-CFP; not shown: CFP fusion partner
# T3 sequence (O00481 30-513): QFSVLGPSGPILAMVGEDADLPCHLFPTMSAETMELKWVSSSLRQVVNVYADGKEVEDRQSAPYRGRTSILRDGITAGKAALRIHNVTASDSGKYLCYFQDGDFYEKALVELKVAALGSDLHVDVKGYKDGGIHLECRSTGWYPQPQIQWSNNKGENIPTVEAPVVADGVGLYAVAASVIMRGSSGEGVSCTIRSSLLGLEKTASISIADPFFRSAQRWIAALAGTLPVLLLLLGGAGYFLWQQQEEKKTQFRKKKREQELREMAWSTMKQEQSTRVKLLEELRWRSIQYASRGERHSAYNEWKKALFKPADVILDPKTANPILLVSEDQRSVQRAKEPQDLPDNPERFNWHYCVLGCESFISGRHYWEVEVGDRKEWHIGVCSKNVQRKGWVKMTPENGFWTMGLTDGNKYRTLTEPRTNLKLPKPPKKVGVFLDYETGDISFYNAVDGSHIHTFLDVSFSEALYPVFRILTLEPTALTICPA
# [4] = target: T1, recombinant human BTN3A1-His (Sino …); assay: SPR Biacore single cycle kinetics; BTN3A1-His captured via anti-His, IgG analyte, bivalent analyte fit
# Procedure: (§1) All single cycle kinetic experiments were run at 25° C. with HBS-P+ running buffer (pH 7.4) containing 0.1% BSA (GE Healthcare, Little Chalfont, UK).
# (§2) BTN3A1 His-tagged antigen (Sino Biological, Beijing, China) was diluted in running buffer to a final concentration of 0.4 μg/ml. At the start of each cycle, BTN3A1-His was captured onto Fc2 of CM5 sensor chip pre-coupled using a His capture kit (GE Healthcare, Little Chalfont, UK) with standard amine chemistry at a flow rate of 10 μl/min. An immobilization level (RL) of ~34 RU, 16 RU or 11 RU, the different theoretical values to obtain a RMax of ~50 RU was used for the analytes Fab, F(ab′) 2 and IgG respectively. The surface was then allowed to stabilize. Single cycle kinetic data was obtained with the purified samples (Fab, F(ab′)₂ and IgG) at a flow rate of 40 μl/min to minimize any potential mass transfer effects. The signal from the reference channel Fc1 (no antigen capture) was subtracted from that of Fc2 to correct for differences in non-specific binding to the reference surface. The signal for BTN3A1-His blank runs (no analyte) were subtracted to correct for differences in surface stability. The association phase for the five injections of increasing concentrations was monitored for 240 seconds each time and a single dissociation phase was measured for 1400 seconds following the last injection of analyte. Regeneration of the chip surface was conducted using two injections of 10 mM glycine-HCL pH 1.5 followed by a stabilization period of 240 seconds. Raw sensorgrams were fitted with a 1:1 model for Fab samples and with a bivalent analyte model for F(ab′)₂ and IgG samples in agreement with the different valences of the analytes. The kinetic constants were calculated for each variant (see Tables 10, 11 and 12).
# [5] = target: T4, BTN3A2-CFP on HEK293T BTN3KO cells (human, UniProt P78410 30-334); assay: flow cytometry on HEK293T BTN3KO transiently transfected with BTN3A2-CFP, gated CFP+ (n = 5)
# T4 construct: Transient transfection of BTN3A knock-out HEK293T; also called HEK293T BTN3KO + 3A2-CFP; not shown: CFP fusion partner
# T4 sequence (P78410 30-334): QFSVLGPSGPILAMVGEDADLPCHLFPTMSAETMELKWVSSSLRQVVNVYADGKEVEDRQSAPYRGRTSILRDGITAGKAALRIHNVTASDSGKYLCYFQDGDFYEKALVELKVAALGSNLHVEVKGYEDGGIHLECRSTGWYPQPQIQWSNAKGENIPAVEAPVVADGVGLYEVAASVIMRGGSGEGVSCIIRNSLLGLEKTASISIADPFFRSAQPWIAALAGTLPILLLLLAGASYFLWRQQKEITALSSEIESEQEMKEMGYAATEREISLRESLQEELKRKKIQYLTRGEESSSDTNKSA
# [6] = target: T1, recombinant human BTN3A1-His (Sino …); assay: SPR Biacore single cycle kinetics; BTN3A1-His captured via anti-His, F(ab′)2 analyte, bivalent analyte fit
# Procedure: as §1
# as §2, with “The signal for BTN3A1-His blank runs (no analyte) were subtracted to correct for differences in surface stability.” left out, “Regeneration of the chip surface was conducted using two injections of 10 mM glycine-HCL pH 1.5 followed by a stabilization period of 240 seconds. Raw sensorgrams were fitted with a 1:1 model for Fab samples and with a bivalent analyte model for F(ab′)₂ and IgG samples in agreement with the different valences of the analytes.” left out
# [7] = target: T1, recombinant human BTN3A1-His (Sino …); assay: SPR Biacore single cycle kinetics; BTN3A1-His captured via anti-His, IgG analyte, bivalent analyte fit (Kd 1)
# Procedure: as §1
# as §2, with “The signal for BTN3A1-His blank runs (no analyte) were subtracted to correct for differences in surface stability.” left out, “Regeneration of the chip surface was conducted using two injections of 10 mM glycine-HCL pH 1.5 followed by a stabilization period of 240 seconds. Raw sensorgrams were fitted with a 1:1 model for Fab samples and with a bivalent analyte model for F(ab′)₂ and IgG samples in agreement with the different valences of the analytes.” left out
# [8] = target: T1, recombinant human BTN3A1-His (Sino …); assay: SPR Biacore single cycle kinetics; BTN3A1-His captured via anti-His, IgG analyte, bivalent analyte fit (Ka1)
# Procedure: as §1
# as §2, with “The signal for BTN3A1-His blank runs (no analyte) were subtracted to correct for differences in surface stability.” left out, “Regeneration of the chip surface was conducted using two injections of 10 mM glycine-HCL pH 1.5 followed by a stabilization period of 240 seconds. Raw sensorgrams were fitted with a 1:1 model for Fab samples and with a bivalent analyte model for F(ab′)₂ and IgG samples in agreement with the different valences of the analytes.” left out
binder,measurement,setting,value
B1,Kd,[1],0.176 nM
B2,EC50,[2],1.75 µg/mL
same,EC50,[3],2.4 µg/mL
same,Kd 2,[4],44 s⁻¹
same,EC50,[5],1.88 µg/mL
B3,Kd 2,[4],0.0241 s⁻¹
B4,Kd 2,[6],32.4 s⁻¹
B5,Kd 2,[6],54.6 s⁻¹
B6,koff,[7],0.00379 s⁻¹
same,Kd 2,[4],8.6e-05 s⁻¹
same,kon,[8],56300 M⁻¹ s⁻¹
B7,Kd,[1],0.319 nM
